Measured values from publication PMC5566378.

Biological target: human IL-17RA extracellular domain (human), Q96F46
Assay: SPR
Settings: ligand; chains chain; biotin on the Avi-tag (E. coli BirA), for the SPR measurements only; remark: other sources report otherwise

B1: human IL-17F homodimer, Q96PD4 31-163 (protein)
chain: RKIPKVGHTFFQKPESCPPVPGGSMKLDIGIINENQRVSMSRNIESRSTSPWNYTVTWDPNRYPSEVVQAQCRNLGCINAQGKEDISMNSVPIQQETLVVRRKHQGCSVSFQLEKVLVTVGCTCVTPVIHHVQ
Kd: 136 nM
